Source: FireProtDB (doi:10.1016/j.bpj.2010.04.076)

B1: Adenylate kinase, P16304 (parent)
chain: MNLVLMGLPGAGKGTQGERIVEDYGIPHISTGDMFRAAMKEETPLGLEAKSYIDKGELVPDEVTIGIVKERLGKDDCERGFLLDGFPRTVAQAEALEEILEEYGKPIDYVINIEVDKDVLMERLTGRRICSVCGTTYHLVFNPPKTPGICDKDGGELYQRADDNEETVSKRLEVNMKQTQPLLDFYSEKGYLANVNGQQDIQDVYADVKDLLGGLKK

Variants of: B1
Conditions: Bacillus subtilis (strain 168), pH 7, CD, transition: 2, reversible: yes, structure 2EU8, whole UniProt chain shown; for Tm / change of melting temperature, mutant - wild type (higher = more stable): Thermal, KH2PO4 10mM; for ddG of mutation (higher = less stable) / unfolding free energy: 20 °C, GdnHCl, Phosphate buffer 10mM

Row | Variant | Tm | change of melting temperature, mutant - wild type (higher = more stable) | ddG of mutation (higher = less stable) | unfolding free energy
1 | G214R | 49.8 °C | 1.4 °C |  | 
2 | Q199R G214R | 53.4 °C | 5 °C | -2.63 kcal/mol | 5.97 kcal/mol
3 | Q199R G214K | 48.4 °C | 0 °C |  | 
4 | Q199R G214A | 49.1 °C | 0.7 °C |  | 
5 | Q199R Q16L | 63.3 °C | 14.9 °C | -3.35 kcal/mol | 6.69 kcal/mol
6 | Q199R | 49.5 °C | 1.1 °C | -0.48 kcal/mol | 3.82 kcal/mol
7 | T179I | 47.8 °C | -0.6 °C |  | 
8 | Q199R G213E | 51.4 °C | 3 °C | -1.68 kcal/mol | 5.02 kcal/mol
9 | Q199R G213A | 37.9 °C | -10.5 °C |  | 
10 | Q199R G213Q | 39.3 °C | -9.1 °C |  | 
11 | Q199R T179I | 53.3 °C | 4.9 °C | -2.4 kcal/mol | 5.74 kcal/mol
12 | Q199R A193V | 54.6 °C | 6.2 °C | -2.87 kcal/mol | 6.21 kcal/mol
13 | A193V | 48.9 °C | 0.5 °C |  | 
